# Test results from patent US20240025955.
# Test system: MMP3 resistant rAgrin (SEQ ID NO: 19)
substance,measurement,value
MMP3,MMP3 degradation,is resistant to MMP3 degradation
same,degradation of Agrin in the presence of increasing amounts of MMP3 for 24 hours,mutation of the MMP-3 cleavage site reduces degradation of Agrin (polypeptide defined by SEQ ID NO: 19)
